The source of these data is publication doi:10.1101/2024.04.03.587999 (bioRxiv, 2024).

In this test the target is T1, Outer membrane protein A of Acinetobacter baumannii (recombinant AbOmpA) (Acinetobacter baumannii, UniProt Q6RYW5 20-356).
T1 sequence (looked up): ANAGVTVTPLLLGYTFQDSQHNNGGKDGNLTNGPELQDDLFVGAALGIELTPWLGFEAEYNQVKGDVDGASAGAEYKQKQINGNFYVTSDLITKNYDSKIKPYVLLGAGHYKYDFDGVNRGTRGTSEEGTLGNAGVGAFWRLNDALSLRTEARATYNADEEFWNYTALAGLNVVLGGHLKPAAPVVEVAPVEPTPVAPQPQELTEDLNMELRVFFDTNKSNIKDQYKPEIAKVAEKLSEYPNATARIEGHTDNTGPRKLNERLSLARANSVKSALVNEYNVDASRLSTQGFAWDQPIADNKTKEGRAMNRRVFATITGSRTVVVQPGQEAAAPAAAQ
The experiment in a line: SPR. Background: SPR reads the build-up and loss of mass on a sensor chip optically.

The term Kd denotes the constant that tells how readily two partners part at equilibrium.

Consider QMGFMTSPKHSV [P92], for which the Kd turned out to be 7.84 nM.
